Experiments:
rat RXFP1 (rat) = rat RXFP1 (rat) (UniProt Q6R6I6)
human RXFP1 (human) = human RXFP1 (human) (UniProt Q9HBX9)
Sequence of human RXFP1 (human) (Q9HBX9 whole entry): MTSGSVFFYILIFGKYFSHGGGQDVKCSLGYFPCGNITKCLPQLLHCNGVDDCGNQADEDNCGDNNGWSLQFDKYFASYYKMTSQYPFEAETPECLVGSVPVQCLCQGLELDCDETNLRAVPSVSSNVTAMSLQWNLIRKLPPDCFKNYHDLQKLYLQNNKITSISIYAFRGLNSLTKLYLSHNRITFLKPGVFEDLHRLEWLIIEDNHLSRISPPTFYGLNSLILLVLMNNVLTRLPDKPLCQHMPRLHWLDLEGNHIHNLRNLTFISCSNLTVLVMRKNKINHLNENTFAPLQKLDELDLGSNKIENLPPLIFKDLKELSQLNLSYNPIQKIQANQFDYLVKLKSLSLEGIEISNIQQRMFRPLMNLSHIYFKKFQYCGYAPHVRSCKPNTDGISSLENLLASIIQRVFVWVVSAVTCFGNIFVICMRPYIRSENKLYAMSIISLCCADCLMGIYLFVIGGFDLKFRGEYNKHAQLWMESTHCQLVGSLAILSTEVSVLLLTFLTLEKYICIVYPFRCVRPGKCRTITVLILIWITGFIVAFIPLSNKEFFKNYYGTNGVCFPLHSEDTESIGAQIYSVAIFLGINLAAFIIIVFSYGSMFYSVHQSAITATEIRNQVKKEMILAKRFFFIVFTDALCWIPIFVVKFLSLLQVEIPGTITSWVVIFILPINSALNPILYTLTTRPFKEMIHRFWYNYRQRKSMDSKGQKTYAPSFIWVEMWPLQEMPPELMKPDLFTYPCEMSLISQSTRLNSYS

Sequence of rat RXFP1 (rat) (Q6R6I6 whole entry): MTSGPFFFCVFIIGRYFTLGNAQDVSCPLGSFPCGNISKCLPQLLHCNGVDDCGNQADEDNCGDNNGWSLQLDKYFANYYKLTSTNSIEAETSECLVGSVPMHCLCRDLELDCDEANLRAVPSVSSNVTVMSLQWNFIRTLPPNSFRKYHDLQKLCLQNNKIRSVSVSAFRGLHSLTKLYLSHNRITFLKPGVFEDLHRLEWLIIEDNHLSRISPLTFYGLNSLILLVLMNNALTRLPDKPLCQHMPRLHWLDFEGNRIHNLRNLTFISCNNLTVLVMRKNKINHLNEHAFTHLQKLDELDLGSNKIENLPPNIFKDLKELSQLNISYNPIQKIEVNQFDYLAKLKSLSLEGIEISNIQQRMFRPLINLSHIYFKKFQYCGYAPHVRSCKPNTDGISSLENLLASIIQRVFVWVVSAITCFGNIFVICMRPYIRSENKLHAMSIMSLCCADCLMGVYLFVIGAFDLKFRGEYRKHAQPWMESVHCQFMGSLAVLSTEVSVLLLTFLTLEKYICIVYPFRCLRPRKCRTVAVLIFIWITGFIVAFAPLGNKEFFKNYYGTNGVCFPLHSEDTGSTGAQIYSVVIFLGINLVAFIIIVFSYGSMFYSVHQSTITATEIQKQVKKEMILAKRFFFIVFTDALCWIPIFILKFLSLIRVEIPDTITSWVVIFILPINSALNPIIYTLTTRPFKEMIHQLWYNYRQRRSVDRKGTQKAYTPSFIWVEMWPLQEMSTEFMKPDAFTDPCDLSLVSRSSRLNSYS

With “Human recombinant relaxin (B-29/A-24) (ligand)” the cAMP (HTRF) in HEK ratRXFP1 cells, EC50 (rat RXFP1 (rat)) was 1.4 nM, the cAMP (HTRF) in HEK ratRXFP1 cells, Emax (% of the 100 nM relaxin response) (rat RXFP1 (rat)) was 95.6% and the cAMP (HTRF) in EA.hy926 hRXFP1 cells, EC50 (human RXFP1 (human)) was 0.06 nM. The cAMP (HTRF) in EA.hy926 hRXFP1 cells, Emax (% of the 100 nM relaxin response) (human RXFP1 (human)) was 100%, the cAMP (HTRF) in OVCAR5 cells with endogenous human RXFP1, EC50 (human RXFP1 (human)) was 1.8 nM and the cAMP (HTRF) in OVCAR5 cells with endogenous human RXFP1, Emax (% of the 100 nM relaxin response) (human RXFP1 (human)) was 96.2%.
